Reference: article PMC10272179, “Structural insight into the human SID1 transmembrane family member 2 reveals its lipid hydrolytic activity” (Nature Communications, 2023)

B1: human SIDT2 (SID1 transmembrane family member 2) (Homo sapiens) (protein)
chain: HLGVLGPKNVSQKDAEFERTYVDEVNSELVNIYTFNHTVTRNRTEGVRVSVNVLNKQKGAPLLFVVRQKEAVVSFQVPLILRGMFQRKYLYQKVERTLCQPPTKNESEIQFFYVDVSTLSPVNTTYQLRVSRMDDFVLRTGEQFSFNTTAAQPQYFKYEFPEGVDSVIVKVTSNKAFPCSVISIQDVLCPVYDLDNNVAFIGMYQTMTKKAAITVQRKDFPSNSFYVVVVVKTEDQACGGSLPFYPFAEDEPVDQGHRQKTLSVLVSQAVTSEAYVSGMLFCLGIFLSFYLLTVLLACWENWRQKKKTLLVAIDRACPESGHPRVLADSFPGSSPYEGYNYGSFENVSGSTDGLVDSAGTGDLSYGYQGRSFEPVGTRPRVDSMSSVEEDDYDTLTDIDSDKNVIRTKQYLYVADLARKDKRVLRKKYQIYFWNIATIAVFYALPVVQLVITYQTVVNVTGNQDICYYNFLCAHPLGNLSAFNNILSNLGYILLGLLFLLIILQREINHNRALLRNDLCALECGIPKHFGLFYAMGTALMMEGLLSACYHVCPNYTNFQFDTSFMYMIAGLCMLKLYQKRHPDINASAYSAYACLAIVIFFSVLGVVFGKGNTAFWIVFSIIHIIATLLLSTQLYYMGRWKLDSGIFRRILHVLYTDCIRQCSGPLYVDRMVLLVMGNVINWSLAAYGLIMRPNDFASYLLAIGICNLLLYFAFYIIMKLRSGERIKLIPLLCIVCTSVVWGFALFFFFQGLSTWQKTPAESREHNRDCILLDFFDDHDIWHFLSSIAMFGSFLVLLTLDDDLDTVQRDKIYVF
notes: full-length (832 residues, with signal peptide), C-terminal FLAG and His8 tags, expressed in HEK293F, purified in GDN; homodimer
B2: human SID1 transmembrane family member 2 (SIDT2), full-length (natural protein, UniProt Q8NBJ9 19-832, looked up)
chain: HLGVLGPKNVSQKDAEFERTYVDEVNSELVNIYTFNHTVTRNRTEGVRVSVNVLNKQKGAPLLFVVRQKEAVVSFQVPLILRGMFQRKYLYQKVERTLCQPPTKNESEIQFFYVDVSTLSPVNTTYQLRVSRMDDFVLRTGEQFSFNTTAAQPQYFKYEFPEGVDSVIVKVTSNKAFPCSVISIQDVLCPVYDLDNNVAFIGMYQTMTKKAAITVQRKDFPSNSFYVVVVVKTEDQACGGSLPFYPFAEDEPVDQGHRQKTLSVLVSQAVTSEAYVSGMLFCLGIFLSFYLLTVLLACWENWRQKKKTLLVAIDRACPESGHPRVLADSFPGSSPYEGYNYGSFENVSGSTDGLVDSAGTGDLSYGYQGRSFEPVGTRPRVDSMSSVEEDDYDTLTDIDSDKNVIRTKQYLYVADLARKDKRVLRKKYQIYFWNIATIAVFYALPVVQLVITYQTVVNVTGNQDICYYNFLCAHPLGNLSAFNNILSNLGYILLGLLFLLIILQREINHNRALLRNDLCALECGIPKHFGLFYAMGTALMMEGLLSACYHVCPNYTNFQFDTSFMYMIAGLCMLKLYQKRHPDINASAYSAYACLAIVIFFSVLGVVFGKGNTAFWIVFSIIHIIATLLLSTQLYYMGRWKLDSGIFRRILHVLYTDCIRQCSGPLYVDRMVLLVMGNVINWSLAAYGLIMRPNDFASYLLAIGICNLLLYFAFYIIMKLRSGERIKLIPLLCIVCTSVVWGFALFFFFQGLSTWQKTPAESREHNRDCILLDFFDDHDIWHFLSSIAMFGSFLVLLTLDDDLDTVQRDKIYVF
modifications: N-linked glycans resolved at N27, N54, N60, N123, N141 and N165
notes: SIDT2, human, full-length cDNA; 832-amino acid protein with a signal peptide, BRD1 (23-152), BRD2 (157-287), CTD between TM1 and TM2, and eleven TMs; Expressed from the full-length cDNA with its own signal peptide; also called apoSIDT2-pH 7.4; apoSIDT2-pH 5.5

What was measured:
[1] = substrate: CCCCCCCCCCCCC/C=C/[C@@H](O)[C@H](CO)NC(=O)CCCCCCCCCCCCCCCCC; assay: LC-MS quantification of sphingosine, Michaelis-Menten fit; type: biochemical, Homo sapiens; details: 0.3 μM enzyme, 25 mM Tris pH 8.0, 150 mM NaCl, 0.02% DDM, 0.002% CHS micelles, room temperature, 30 min
[2] = target: the molecule itself; assay: cryo-EM structure; purified SIDT2 in GDN micelles; three samples: pH 7.4 (HEPES, 150 mM NaCl), pH 5.5 (MES) and pH 5.5 plus miRNA2911 (RNA:protein 5:1); refinement with C2 symmetry; no conformational change between the three

Protein	Km [1] [µM]	kcat [1] [s⁻¹]	stoichiometry N [2]
B1	9.0	0.00012	–
B2	–	–	2
